Test results taken from paper PMC4979064, “Crystal structure of the plant receptor-like kinase TDR in complex with the TDIF peptide” (Nature Communications, 2016).
Positions count from the first letter of the chain named. Square brackets hold non-standard residues; d marks the D form. Ends that are not written are not given here. Hyp = O=C(O)[C@@H]1C[C@@H](O)CN1; Ahx = NCCCCCC(=O)O

Experiments:
Settings in all cases: both partners purified
[1] = target: T1, lysine methylated C259A/C540S TDR mutant, extracellular domain (residues 31–631) (Arabidopsis thaliana, UniProt Q9FII5 31-631, C259A | C540S, lysine residues methylated; digested with Endo H (deglycosylated)); assay: crystal structure; TDR and TDIF mixed at a molar ratio of 1:1.5, vapour diffusion at 20 °C, 4 M sodium nitrate, 0.1 M sodium acetate pH 4.8, 200 mM ammonium sulfate; 3.0 Å, molecular replacement
T1 construct: TDR/PXY, Arabidopsis thaliana, extracellular LRR domain, residues 31-631, with C259A/C540S; also called lysine methylated C259A/C540S mutant; methylated TDR protein; not shown: 10xHis (after an HRV3C protease site), C-terminal, cleaved
T1 sequence (looked up): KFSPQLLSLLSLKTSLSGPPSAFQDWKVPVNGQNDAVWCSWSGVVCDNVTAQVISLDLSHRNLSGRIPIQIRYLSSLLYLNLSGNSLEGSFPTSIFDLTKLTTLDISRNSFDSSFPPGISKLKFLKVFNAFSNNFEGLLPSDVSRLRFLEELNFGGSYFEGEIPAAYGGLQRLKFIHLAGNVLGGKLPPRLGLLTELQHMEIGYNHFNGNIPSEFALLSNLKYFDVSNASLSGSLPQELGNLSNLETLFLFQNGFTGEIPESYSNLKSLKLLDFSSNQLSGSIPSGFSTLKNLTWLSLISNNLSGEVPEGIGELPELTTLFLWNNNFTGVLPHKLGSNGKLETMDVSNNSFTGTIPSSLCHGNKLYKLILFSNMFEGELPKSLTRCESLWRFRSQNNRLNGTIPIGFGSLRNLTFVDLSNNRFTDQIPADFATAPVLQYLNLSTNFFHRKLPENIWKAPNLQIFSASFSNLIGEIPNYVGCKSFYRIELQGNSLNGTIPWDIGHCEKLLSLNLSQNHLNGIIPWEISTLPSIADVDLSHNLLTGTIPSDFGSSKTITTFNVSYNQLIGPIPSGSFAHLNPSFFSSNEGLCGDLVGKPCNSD

[2] = target: T2, extracellular domain (residues 31–631) of TDR from A. thaliana, wild type (Arabidopsis thaliana, UniProt Q9FII5 31-631); assay: pull-down; biotinylated TDIF (2 ug) held on Dynabeads M-280 Streptavidin; purified TDR protein added with 0.1 mg/ml BSA, 4 °C, 2 h; wash buffer 20 mM Tris-HCl pH 7.5, 150 mM NaCl; bound protein eluted in SDS sample buffer, SDS-PAGE
T2 construct: TDR/PXY (TDIF receptor/phloem intercalated with xylem), LRR receptor-like kinase, Arabidopsis thaliana, extracellular LRR domain, residues 31-631; The purification told in the methods cleaves the His tag with HRV3C protease; also called wild-type TDR; TDIF receptor; source: Sf9 insect cells (baculovirus), secreted into the culture supernatant, purified
T2 sequence (looked up): T1 sequence (looked up) with A229C, S510C

[3] = target: T1, lysine methylated C259A/C540S TDR …; assay: as above
[4] = target: T3, C259A/C540S TDR mutant, extracellular domain (residues 31–631), as in the pull-down of Fig. 2e (Arabidopsis thaliana, UniProt Q9FII5 31-631, C259A | C540S); assay: as above
T3 construct: TDR/PXY, Arabidopsis thaliana, extracellular LRR domain, residues 31-631, with C259A/C540S; it may be the same preparation as m2; also called C259A/C540S mutant; TDR C259A/C540S mutant; source: Sf9 insect cells (baculovirus), purified
T3 sequence (looked up): T1 sequence (looked up)

[5] = target: T4, TDR F161A mutant (in the C259A/C540S extracellular domain, residues 31–631) (Arabidopsis thaliana, UniProt Q9FII5 31-631, C259A | C540S | F161A); assay: as above
T4 construct: TDR/PXY, Arabidopsis thaliana, extracellular LRR domain, residues 31-631, C259A/C540S background with F161A; source: Sf9 insect cells (baculovirus), purified (Ni Sepharose excel)
T4 sequence (looked up): T1 sequence (looked up) with F131A

[6] = target: T5, TDR S162A mutant (in the C259A/C540S extracellular domain, residues 31–631) (Arabidopsis thaliana, UniProt Q9FII5 31-631, C259A | C540S | S162A); assay: as above
T5 construct: TDR/PXY, Arabidopsis thaliana, extracellular LRR domain, residues 31-631, C259A/C540S background with S162A; source: Sf9 insect cells (baculovirus), purified (Ni Sepharose excel)
T5 sequence (looked up): T1 sequence (looked up) with S132A

[7] = target: T6, TDR R421A mutant (in the C259A/C540S extracellular domain, residues 31–631) (Arabidopsis thaliana, UniProt Q9FII5 31-631, C259A | C540S | R421A); assay: as above
T6 construct: TDR/PXY, Arabidopsis thaliana, extracellular LRR domain, residues 31-631, C259A/C540S background with R421A; source: Sf9 insect cells (baculovirus), purified (Ni Sepharose excel)
T6 sequence (looked up): T1 sequence (looked up) with R391A

[8] = target: T7, TDR R423A mutant (in the C259A/C540S extracellular domain, residues 31–631) (Arabidopsis thaliana, UniProt Q9FII5 31-631, C259A | C540S | R423A); assay: as above
T7 construct: TDR/PXY, Arabidopsis thaliana, extracellular LRR domain, residues 31-631, C259A/C540S background with R423A; source: Sf9 insect cells (baculovirus), purified (Ni Sepharose excel)
T7 sequence (looked up): T1 sequence (looked up) with R393A

Measured: binding result

B1: Tracheary element differentiation factor (TDIF) peptide, HEV(Hyp)SG(Hyp)NPISN (peptide)
peptide: HEV[Hyp]SG[Hyp]NPISN
notes: TDIF, 12-residue CLE family peptide with two hydroxyprolines (written P at 4 and 7), encoded by the CLE41 and CLE44 genes in Arabidopsis; the processed peptide from the C-terminus of the precursor; The same peptide is also encoded by CLE44; also called synthesized TDIF peptide; source: synthetic peptide (Eurofins Genomics)
binds: [1]

B2: biotinylated TDIF peptide, HEV(Hyp)SG(Hyp)NPISN-GSGS-(Ahx)-Biotin (peptide)
peptide: HEV[Hyp]SG[Hyp]NPISNGSGS-{Ahx-biotin}
notes: TDIF, 12-residue CLE family peptide with two hydroxyprolines (written P at 4 and 7), encoded by the CLE41 and CLE44 genes in Arabidopsis; linker before (Ahx)-Biotin; also called biotinylated TDIF peptides; source: synthetic peptide (Eurofins Genomics); not shown: Biotin, C-terminal, kept
not listed: [1]
binds: all other assays above
